3 molecules from patent US20190375826A1 can be followed below.

Like-named read-outs stand apart in the source and are kept apart here.

The target in test [1] is DENV2 NS1 (nonstructural protein 1 of dengue virus type 2 strain 16681) (dengue virus serotype 2, strain 16681).
Test [2] shares this target. This is another data set of the same source.
For test [3], the target named is DENV3 NS1 (nonstructural protein 1 of dengue virus type 3 strain H87) (dengue virus serotype 3, strain H87).
For test [4] the target is unchanged. This is another data set of the same source.
The target in test [5] is DENV4 NS1 (nonstructural protein 1 of dengue virus type 4 strain H241) (dengue virus serotype 4, strain H241).
The target is the same in test [6]. The source holds these as a separate data set.

B1: mAb33-7.1 (antibody, V domains shown)
VH: EVQLQESGAELAKPGASVKMSCKASGYTFTSYWMHWVKQRPGQVLEWIGYINPNTGFTEYSQKFKDKATLTAVKSSSTAYIQLTSLTSDDSAVYYCARENYRYDGAMDYWGQGTSVTVSS
VL: DIVLTQSPALMAAFPGDRVTITCSVSSSVSSSNLHWYQQKSETSPKPWIYGTSTLASGVPVRFSGSGSGTSYSLTISSMEAEDAATYYCQQWSSYPLTFGAGTKLELKR
As to B1, the minimum detectable concentration of NS1 proteins in test [1] was 62.5 ng/mL; in test [2] it was 3.91 ng/mL.

B2: mAb43-1.3 (antibody, V domains shown)
VH: GELQESGPQVVRPGTSVKISCKASGYSFSNYWMHWVKQRPGQGLEWIGVIDPSDSETRLNQKFKDKATLTVDKSSSTAYMQLSSPTSEDSAIYYCARSQFGLRFAYWGQGTLVTVSA
VL: DIVMTQSPSSMTVTAGEKVTMSCQSSQSLFNSGTQKNYLTWYQQKPGQPPKLLISWASTRDSGVPDRFTGSGSGTDFTLTINGVQAEDLAVYFCQNDYDSPYTFGGGTKLEIKR
As to B2, the minimum detectable concentration of NS1 proteins in test [3] came to 62.5 ng/mL; in test [4], 3.91 ng/mL.

B3: mAb22-1.5 (antibody, V domains shown)
VH: EVQLQQSGPELVKPGASVKISCKASGYTFTDYNIHWVKQSPGKSLEWIGYIYPDNGDTGYNQIFKNKATLTVDTSSSAAYMELRSLTSEDSAVYYCVRRVLLDSWGQGTSVTVSS
VL: DIQMTQTTSSLSASLGDRVTISCSASQDINNFLNWYQQKPDGTIKLLIYYTSSLQSGVPSRFSGSGSGTDYSLTISNLEPEDIATYYCQQYSKLPRTFGGGTKLEIKR
As to B3, the minimum detectable concentration of NS1 proteins in test [5] worked out at 62.5 ng/mL; in test [6] it was 0.977 ng/mL.
